The RNAGym collection of RNA variant scans (doi:10.1073/pnas.2313332121)

B1: TPR t1 (parent)
chain: GACCAAUCUGCCCUCAGAGCUCGAGAACAUCUUCGGAUGCAGAGGAGGCAGGCUUCGGUGGCGCGAUAGCGCCAACGUCCUCAACCUCCAAUGCAUCCCACCACAUGAUGAUGCCUGAAGAGCCUUGGUUUUUUG

Variants of: B1
Assay: polymerase ribozyme fitness, log enrichment relative to wild type (log ratio); higher = more active; in vitro selection for triplet polymerase activity
Method in brief: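 Each subunit of a heterodimeric triplet polymerase ribozyme was mutagenized into a library by PCR, transcribed, and subjected to one round of in vitro selection, run in triplicate. Libraries were annealed with a biotinylated primer, the partner subunit and triplets, incubated frozen at −7 °C, and extended constructs were gel-excised, captured on streptavidin beads and recovered by RT-PCR. Input and output libraries were sequenced on Illumina, keeping genotypes with ≥10 input reads and ≥1 read per output. Fitness is log base 2 of genotype enrichment divided by wild-type enrichment, from inverse-variance-weighted replicate averages.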

| Variant | polymerase ribozyme fitness (log ratio) |
| --- | --- |
| A66C C85U C86U C97U | -3.15 |
| G63U G120U | -0.921 |
| G63U A100C | -2.79 |
| C64G G120C | -4.47 |
| C64U U78C A83C A100C C101G U129G | -3.92 |
| G65C C124A | -4.91 |
| G65A U106G | -6.66 |
| C64U C72U A83G U133G | -1.1 |
| G63U C64G | -4.92 |
| G63U C64U | -6.21 |
| G63U C64A | -6.48 |
| A66G C72G A95U G117U U132C | -6.16 |
| A66G C79G U130C | -3.06 |
| C64U U78A | -0.358 |
| C64A G120C U125G | -7.86 |
| C64G C72U | -6.14 |
| G63U C72U C82G G113C | -4.22 |
| A66G A100U G120C | -0.756 |
| A66G G71U C94A A111C | -4.73 |
| G63U A74U G77A | -5.16 |
| G63C C104A | -1.86 |
| G65U C123G | -4.68 |
| C64G C123U | -3.63 |
| C64G C123G | -5.33 |

| Variant | polymerase ribozyme fitness (log ratio) |
| --- | --- |
| G65U G69U G113A U130G | -4.13 |
| C64A U112C | -4.53 |
| A66G G77A | -1.13 |
| C64U G110C | -3.51 |
| G63U C104U | -1.36 |
| C64U C86A G122A U132A | -2.78 |
| C64U G65A A105G G113A | -6.73 |
| G63C G107U | -5.92 |
| A68G A103C | -5.02 |
| G63U A83G C85A U129A | -2.64 |
| G63C U92A C98U | -5.26 |
| G63C G65A | -5.84 |
| A66U A83G C86U | -2.39 |
| G63U U78C | -2.92 |
| C64U U81G | -4.28 |
| G63C G113C | -3.38 |
| C64U C89G | -1.73 |
| C64U C89A | -1.58 |
| C64U C89U | -0.57 |
| C64U U92G | -3.31 |
| C64U U92C | -1.23 |
| G63U G93U C123U | -1.46 |
| C64G A121G | -4.54 |
| C64G A121U | -4.94 |

| Variant | polymerase ribozyme fitness (log ratio) |
| --- | --- |
| A66U C72G | -1.63 |
| C64U A84C C123G G135C | 1.41 |
| G63U G77A | -3.45 |
| C64G A66G G69C C82A A105U | -3.01 |
| A66C C88U G113U | -5.8 |
| G63U U78G G107U A111U U116C | -6 |
| G63U U133A | -2.29 |
| A66C G93A A121G | -0.199 |
| G63U G107A | -4.13 |
| C64U C79U | -0.541 |
| C64A C86U A103U C114A | -6.49 |
| G63U A105U | -3.37 |
| C64U A84U | -0.154 |
| C64U A84C | 0.992 |
| G63U C123G | 0.817 |
| C64U C101U | 0.0607 |
| G63C C101U U130G | -0.981 |
| G63U G77U U109A G135U | -7.04 |
| U67C C114U | -6.64 |
| A66U A90G A91G A103G G107C A121G | -5.84 |
| G63U U106G | -3.21 |
| U67G U92G C99G A121G | -7.6 |
| A68G A74G C79A | -4.8 |
| A68G A83C U96G U106A A121C | -1.7 |

| Variant | polymerase ribozyme fitness (log ratio) |
| --- | --- |
| A66C C85G U106A | -2.61 |
| G63U C101U | -2.57 |
| A66U U116G | -3.73 |
| C64U G122A | -0.796 |
| C64U C80U C88U A111G C114A | -5.18 |
| G63C G120A | 0.11 |
| G63C G120U | -0.189 |
| C64G C115A G128A U130C | -5.49 |
| A66U C73A C85G | -2.04 |
| G63U U78C C94A | -3.61 |
| G63U G120U U126A | -1.69 |
| C64U G113C | -0.91 |
| C64U G113U | -2.54 |
| C64U A111C U112C | -0.987 |
| G63U C73A C97U | -4.28 |
| A66C C72U C80U U126G G128A | -4.37 |
| C64U C123U | 1.23 |
| C64U C123G | 1.86 |
| A66U G71A | -2.53 |
| A66C G69C C97G C101A G107A U112G U130G | -6.88 |
| G63C G135U | -1.25 |
| C64U A66G C86U A95U C99A G117C | -7.47 |
| G63U A95U C124U G135A | -0.147 |
| G63U A84G | -2.18 |

| Variant | polymerase ribozyme fitness (log ratio) |
| --- | --- |
| A66U U130A | -1.42 |
| C64U C114G | -2.3 |
| A66C A111G G117U | -7.39 |
| C64U C73G C94U G120C | -3.99 |
| G63U U109G | -6.35 |
| G63U U78C C101A | -4.07 |
| G63U U131C U132A | -1.24 |
| U67A C73U C94A C104U G117U | -6.08 |
| G63C U87A | -1.59 |
| G63C U87G | -0.832 |
| G63C U87C | -0.645 |
| G63C U129C | -2 |
| G63C U129G | -1.93 |
| G63C U129A | -2.09 |
| C64A G117A | -6.29 |
| C64G C124U | -5.45 |
| C64U G77A | -0.391 |
| C64U G77U | -0.465 |
| G63C G93A U112G | -0.619 |
| C64U C89U C123U | 0.715 |
| C64U G93C | -0.827 |
| C64U A90U A100U | -3.1 |
| C64U C70A A111C C115G G128U | -5.81 |
| A68G C72G A83U C86A C104U U112G U116C A119C | -6.61 |

| Variant | polymerase ribozyme fitness (log ratio) |
| --- | --- |
| C64G U78G G120A A121G C123A U131C | -4.99 |
| C64G C114U | -6.35 |
| C64G C114G | -6.51 |
| C64A A90G U112G | -5.49 |
| C64U C94U C102G | -7.24 |
| G63U C70A U116A | -3.62 |
| C64U U96A | -1.23 |
| C64A C123G | -3.71 |
| C64A C123A | -3.79 |
| C64A C123U | -4.1 |
| G63U C82A | -0.955 |
| G63U C82U | -1.76 |
| U67G G69U G113U | -7.04 |
| G63U C79A G110U | -5.14 |
| C64U C85A U96G U125A | -2.82 |
| G63C G71U U96A A100U G117U U134G | -5.35 |
| G63U C86U U112A | -0.646 |
| C64A G110A G120A | -7.98 |
| A68C C72U U78C C114G G120A C123U | -7.64 |
| G63U C73A | -2.51 |
| C64U C79A G110A | -3.21 |
| U67G C88U A111G U116A | -7.24 |
| A66U C76G U78A U106A | -0.894 |
| C64U C76U C89U U96A | -3.47 |

| Variant | polymerase ribozyme fitness (log ratio) |
| --- | --- |
| G63U G127U | -1.73 |
| G63C G93A G122A | -1.99 |
| C64A C94A | -6.34 |
| G63U C72A | -4.54 |
| G63U C72G | -3.89 |
| C64U C115A | -0.337 |
| C64U A90U | -0.99 |
| C64U G120C | 0.769 |
| A66C C70U G113A | -2.81 |
| C64A G65A C97U G120A | -5.01 |
| G63U C70G C89A A90U A100U A121G | -2.02 |
| C64U C82A C124A | 1.31 |
| G63U U130G | -0.881 |
| G63U U130A | -1.46 |
| C64U G117C C123U | -4.94 |
| A66G G77U C89A | -4.38 |
| G63C C98G U116A C124G | -5.39 |
| C64U C86A G135U | -2.35 |
| G63U C101A U116C A119G G120U | -3.85 |
| A66G U131G | -2.21 |
| A66C A95G | -1.6 |
| G63C C123A | 0.07 |
| G63C C123U | 0.859 |
